This note sets out measurements from patent US10358638B2, “Method of producing 1,5-pentadiamine using lysine decarboxylase mutant having improved thermal stability” (AJINOMOTO CO., INC., priority 2014, dated 2019).

A short description of data set [1]: Remaining lysine decarboxylase activity of cell free extract after incubation at 65° C. The data set is classed as biochemical, Escherichia coli. The protocol: (§1) The activity of the lysine decarboxylase was measured according to the method described in JP patent application laid-open Publication No. 2008-193899. 0.1 mL of a microbial cell suspension or a treated product thereof was added to 1 mL of a reaction solution containing 100 mM MES-NaOH buffer (pH 6.0), 10 g/L (55 mM) of L-lysine hydrochloride and 26.5 mg/L (0.1 mM) of PLP, and then the reaction mixture was incubated at 37° C. for 5 minutes. 0.1 mL of the reaction solution was collected and added to 1 mL of 1% (v/v) phosphoric acid to stop the reaction. Lysine and 1,5-PD were quantified with HPLC by a post column OPA method (S. R. Vale and M. B. Gloria, Journal Of AOAC International (1997) vol. 80, p. 1006-1012) or a method of quantifying remaining L-lysine using a biosensor BF-5 (Oji Scientific Instruments Co., Ltd.). One unit was defined as an activity that formed 1 μmol of 1,5-PD in one minute under this condition.
Each transformant was inoculated to 50 mL of L medium in a 500 mL Sakaguchi flask containing 100 μg/mL of ampicillin and cultured with shaking at 30° C. for 16 hours. Microbial cells were collected from the cultured medium by centrifugation, washed once with saline, subsequently suspended in 5 mL of 100 mM potassium phosphate buffer (pH 7.0), and disrupted by sonication at 4° C. for 20 minutes. An insoluble fraction was removed by centrifuging the lysate solution at 8,000 rpm for 10 minutes to prepare a cell free extract.
The resulting cell free extract was diluted 20 fold with 100 mM MES-NaOH buffer (pH 6.0). This crude enzyme solution was incubated at 65° C., and its remaining activity after 3 and 5 hours was measured by the method described in Example 1. As a result, the activity in the crude enzyme solution from the strain expressing the mutated enzyme before incubation was almost the same as that from the strain expressing the wild-type enzyme (Table 3).

A short description of data set [2]: Inhibition of enzyme activity by iron ion and effect of chelating agent EDTA. The data set is classed as biochemical, Escherichia coli. The procedure:
as §1
Cell free extracts were prepared from the strain expressing wild-type CadA and the strain overexpressing double mutant CadA, respectively in the same manner as in Examples 2 and 3. Using the resulting cell free extract, iron sulfate heptahydrate (Nacalai Tesque Inc.) at a final concentration of […] (2 mM) was added to the composition shown in Example 1, and an inhibitory effect was measured. […]

Where [3] appears, read: cell free extract diluted 20 fold, before heating.

B1: pCadA220: wild-type lysine decarboxylase (CadA) derived from Escherichia coli W3110, expressed from plasmid pCadA220 (protein, UniProt P0A9H3 1-715, looked up)
Inducible lysine decarboxylase: MNVIAILNHMGVYFKEEPIRELHRALERLNFQIVYPNDRDDLLKLIENNARLCGVIFDWDKYNLELCEEISKMNENLPLYAFANTYSTLDVSLNDLRLQISFFEYALGAAEDIANKIKQTTDEYINTILPPLTKALFKYVREGKYTFCTPGHMGGTAFQKSPVGSLFYDFFGPNTMKSDISISVSELGSLLDHSGPHKEAEQYIARVFNADRSYMVTNGTSTANKIVGMYSAPAGSTILIDRNCHKSLTHLMMMSDVTPIYFRPTRNAYGILGGIPQSEFQHATIAKRVKETPNATWPVHAVITNSTYDGLLYNTDFIKKTLDVKSIHFDSAWVPYTNFSPIYEGKCGMSGGRVEGKVIYETQSTHKLLAAFSQASMIHVKGDVNEETFNEAYMMHTTTSPHYGIVASTETAAAMMKGNAGKRLINGSIERAIKFRKEIKRLRTESDGWFFDVWQPDHIDTTECWPLRSDSTWHGFKNIDNEHMYLDPIKVTLLTPGMEKDGTMSDFGIPASIVAKYLDEHGIVVEKTGPYNLLFLFSIGIDKTKALSLLRALTDFKRAFDLNLRVKNMLPSLYREDPEFYENMRIQELAQNIHKLIVHHNLPDLMYRAFEVLPTMVMTPYAAFQKELHGMTEEVYLDEMVGRINANMILPYPPGVPLVMPGEMITEESRPVLEFLQMLCEIGAHYPGFETDIHGAYRQADGRYTVKVLKEESKK
On to B1, for which, in data set [1] (65° C., 3 h), the “Activity after incubation at 65° C. for 3 h” value amounted to 413 Units/mL. Besides, the “Remaining activity after incubation at 65° C. for 3 h” value in data set [1] (65° C., 3 h, relative to before heating) is 59.2%. In addition, the “Activity after incubation at 65° C. for 5 h” value in data set [1] (65° C., 5 h) is 360 Units/mL. The “Remaining activity after incubation at 65° C. for 5 h” value is listed as 51.6% in data set [1] (65° C., 5 h, relative to before heating) and “reduced by half” in data set [1] (65° C., 5 h, relative to before heating, listed as wild-type enzyme). The molecule also yielded an Activity before heating in data set [1] (setting [3]) of 697 Units/mL. The “Activity before heating, remaining activity” value in data set [1] (setting [3]) came to 100%. The “activity with 2 mM iron ion, of the activity when no iron ion was added” value in data set [2] (2 mM iron ion, no EDTA) amounted to 46.8%. For the same molecule, the Enzyme activity in data set [2] (FeSO4 2 mM, EDTA 0.5 mM) amounted to 827 units/ml; in data set [2] (FeSO4 2 mM, EDTA 1 mM) it was 856 units/ml; in data set [2] (FeSO4 2 mM, EDTA 2 mM) it was 821 units/ml; in data set [2] (FeSO4 2 mM, EDTA 4 mM), 840 units/ml; in data set [2] (FeSO4 2 mM, EDTA 5 mM), 832 units/ml; in data set [2] (FeSO4 2 mM, EDTA None) it was 398 units/ml. In addition, the Enzyme activity in data set [2] (FeSO4 None, EDTA 2 mM) was found to be 840 units/ml; in data set [2] (FeSO4 None, EDTA None), 850 units/ml.
